# Article PMC4678028, “Oligomerization of Baculovirus LEF-11 Is Involved in Viral DNA Replication” (PLoS ONE, 2015)
# B1: DsRed-LEF11 (52–61) (domain or fragment)
# chain: FERIKEYIRA
# notes: LEF-11 of BmNPV, residues 52-61; source: BmN-SWU1 cells, transfected, in lysate; not shown: DsRed, N-terminal, kept
# B2: DsRed-LEF11 (62–112) (domain or fragment)
# chain: NLGHFTVITDKCSKRKVCLHHKRIARLLGIKKIYHQEYKRVVSKVYKNQTW
# notes: LEF-11 of BmNPV, residues 62-112; source: BmN-SWU1 cells, transfected, in lysate; not shown: DsRed, N-terminal, kept
# B3: DsRed-LEF11 (2–51) (domain or fragment)
# chain: PPKNCTHLGGCNSDCLTRSEIQALFREAINTLKHTMNTEDVCAHMLDIVS
# notes: LEF-11 of BmNPV, residues 2-51; source: BmN-SWU1 cells, transfected, in lysate; not shown: DsRed, N-terminal, kept
# B4: BmNPV late expression factor 11 (LEF-11), cMYC- or FLAG-tagged, O92404 1-112 (natural protein)
# chain: MPPKNCTHLGGCNSDCLTRSEIQALFREAINTLKHTMNTEDVCAHMLDIVSFERIKEYIRANLGHFTVITDKCSKRKVCLHHKRIARLLGIKKIYHQEYKRVVSKVYKNQTW
# B5: pIZ-DsRed-LEF11-I55E (natural protein)
# chain: MPPKNCTHLGGCNSDCLTRSEIQALFREAINTLKHTMNTEDVCAHMLDIVSFEREKEYIRANLGHFTVITDKCSKRKVCLHHKRIARLLGIKKIYHQEYKRVVSKVYKNQTW
# notes: LEF-11 of BmNPV with I55E; Probably the whole LEF-11 as in pIZ-DsRed-LEF11; source: BmN-SWU1 cells, transfected, in lysate; not shown: DsRed, N-terminal, kept
# B6: pIZ-DsRed-LEF11-L88E&L89E (natural protein)
# chain: MPPKNCTHLGGCNSDCLTRSEIQALFREAINTLKHTMNTEDVCAHMLDIVSFERIKEYIRANLGHFTVITDKCSKRKVCLHHKRIAREEGIKKIYHQEYKRVVSKVYKNQTW
# notes: LEF-11 of BmNPV with L88E and L89E; Probably the whole LEF-11 as in pIZ-DsRed-LEF11; source: BmN-SWU1 cells, transfected, in lysate; not shown: DsRed, N-terminal, kept
# B7: pIZ-DsRed-LEF11-Y58E&I59E (natural protein)
# chain: MPPKNCTHLGGCNSDCLTRSEIQALFREAINTLKHTMNTEDVCAHMLDIVSFERIKEEERANLGHFTVITDKCSKRKVCLHHKRIARLLGIKKIYHQEYKRVVSKVYKNQTW
# notes: LEF-11 of BmNPV with Y58E and I59E; Probably the whole LEF-11 as in pIZ-DsRed-LEF11; also called YE58&I59E; source: BmN-SWU1 cells, transfected, in lysate; not shown: DsRed, N-terminal, kept
# B8: pIZ-DsRed-LEF11-I85E (natural protein)
# chain: MPPKNCTHLGGCNSDCLTRSEIQALFREAINTLKHTMNTEDVCAHMLDIVSFERIKEYIRANLGHFTVITDKCSKRKVCLHHKREARLLGIKKIYHQEYKRVVSKVYKNQTW
# notes: LEF-11 of BmNPV with I85E; Probably the whole LEF-11 as in pIZ-DsRed-LEF11; source: BmN-SWU1 cells, transfected, in lysate; not shown: DsRed, N-terminal, kept
# B9: DsRed-LEF11 (22–61) (domain or fragment)
# chain: IQALFREAINTLKHTMNTEDVCAHMLDIVSFERIKEYIRA
# notes: LEF-11 of BmNPV, residues 22-61; source: BmN-SWU1 cells, transfected, in lysate; not shown: DsRed, N-terminal, kept
# B10: DsRed-LEF11 (2–61) (domain or fragment)
# chain: PPKNCTHLGGCNSDCLTRSEIQALFREAINTLKHTMNTEDVCAHMLDIVSFERIKEYIRA
# notes: LEF-11 of BmNPV, residues 2-61; source: BmN-SWU1 cells, transfected, in lysate; not shown: DsRed, N-terminal, kept
# B11: DsRed-LEF11 (32–61) (domain or fragment)
# chain: TLKHTMNTEDVCAHMLDIVSFERIKEYIRA
# notes: LEF-11 of BmNPV, residues 32-61; source: BmN-SWU1 cells, transfected, in lysate; not shown: DsRed, N-terminal, kept
# B12: DsRed-LEF11 (72–101) (domain or fragment)
# chain: KCSKRKVCLHHKRIARLLGIKKIYHQEYKR
# notes: source: BmN-SWU1 cells, transfected, in lysate; not shown: DsRed, N-terminal, kept
# B13: DsRed-LEF11 (12–61) (domain or fragment)
# chain: CNSDCLTRSEIQALFREAINTLKHTMNTEDVCAHMLDIVSFERIKEYIRA
# notes: LEF-11 of BmNPV, residues 12-61; source: BmN-SWU1 cells, transfected, in lysate; not shown: DsRed, N-terminal, kept
# B14: DsRed-LEF11 (72–112) (domain or fragment)
# chain: KCSKRKVCLHHKRIARLLGIKKIYHQEYKRVVSKVYKNQTW
# notes: LEF-11 of BmNPV, residues 72-112; source: BmN-SWU1 cells, transfected, in lysate; not shown: DsRed, N-terminal, kept
# B15: DsRed-LEF11 (42–61) (domain or fragment)
# chain: VCAHMLDIVSFERIKEYIRA
# notes: LEF-11 of BmNPV, residues 42-61; source: BmN-SWU1 cells, transfected, in lysate; not shown: DsRed, N-terminal, kept
# What was measured:
# [1] = molecular target: the molecule itself; test: non-reducing SDS-PAGE with western blot; lysates of BmN-SWU1 cells transfected with pIZ-DsRed-LEF11 truncation or point mutant plasmids; loading buffer without β-mercaptoethanol; anti-DsRed blot
# [2] = molecular target: T1, BmNPV late expression factor 11 (LEF-11), cMYC- or FLAG-tagged (Bombyx mori nucleopolyhedrovirus (BmNPV)), O92404; test: non-reducing SDS-PAGE with western blot; lysate of BmN-SWU1 cells transfected with pIZ-LEF11^cMYC, 72 h.p.t.; loading buffer without β-mercaptoethanol; 12% SDS-PAGE; anti-cMYC blot; conditions: remark: other sources report otherwise
# T1 chain: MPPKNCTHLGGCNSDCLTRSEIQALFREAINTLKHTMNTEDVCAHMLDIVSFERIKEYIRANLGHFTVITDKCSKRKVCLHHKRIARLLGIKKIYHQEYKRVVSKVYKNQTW
Binder,stoichiometry N [1],stoichiometry N [2]
B1,2,
B2,2,
B3,2,
B4,,4
B5,2,
B6,2,
B7,2,
B8,2,
B9,2,
B10,2,
B11,2,
B12,2,
B13,2,
B14,2,
B15,2,
